The results in this text go back to the Immune Epitope Database (IEDB).

Usually Kd stands for a measure of binding affinity in units of concentration.

The target in one experiment is HLA-B*08:01. Briefly: IEDB peptide-MHC binding, purified MHC/competitive/radioactivity; filed as Kd, often an IC50 or EC50 that approximates it; ≥ and ≤ were set here for values at or beyond the usual limits of such assays.
Another experiment concerns the target HLA-B*07:02. The description is as above.
Another experiment deals with HLA-B*53:01. Described as above.
The target in another experiment is HLA-B*35:01. Described as above.
The target in another experiment is HLA-B*51:01. The experiment is described as above.
A further experiment concerns the target HLA-B*54:01. The description is as above.
In a further experiment the target is HLA-A*02:02. The description is as above.
The next experiment has as its target HLA-A*02:03. The experiment is described as above.
In a further experiment the target is HLA-A*02:06. The description is as above.
In another experiment the target is HLA-A*68:02. Described as above.
The target of the next experiment is HLA-B*15:01. The description is as above.
Another experiment addresses HLA-B*44:02. The description is as above. Conditions: source organism: Dengue virus 4 Philippines/H241/1956.
A further experiment deals with HLA-A*02:01. Briefly: IEDB peptide-MHC binding, purified MHC/competitive/fluorescence; filed as Kd, often an IC50 or EC50 that approximates it; ≥ and ≤ were set here for values at or beyond the usual limits of such assays. Conditions: source organism: Variola virus.
Another experiment deals with HLA-A*31:01. Briefly: IEDB peptide-MHC binding, purified MHC/competitive/radioactivity; filed as Kd, often an IC50 or EC50 that approximates it; ≥ and ≤ were set here for values at or beyond the usual limits of such assays. Conditions: source organism: Vaccinia virus Copenhagen.
The target of the next experiment is HLA-A*11:01. Described as above. Conditions: source organism: Vaccinia virus Copenhagen.
The target of another experiment is HLA-A*03:01. The experiment is described as above. To be noted: source organism: Vaccinia virus Copenhagen.
A further experiment concerns the target HLA-A*33:01. The description is as above. Conditions: source organism: Vaccinia virus Copenhagen.
In the next experiment the target is HLA-A*68:01. Described as above. Conditions: source organism: Vaccinia virus Copenhagen.
In the next experiment the target is HLA-B*46:01. Briefly: IEDB peptide-MHC binding, purified MHC/direct/fluorescence; filed as Kd, often an IC50 or EC50 that approximates it; ≥ and ≤ were set here for values at or beyond the usual limits of such assays. Conditions: source organism: Yellow fever virus.
[1] abbreviates: source organism: Vaccinia virus WR.
The mark [2] stands for this setting: source organism: Lassa virus Josiah.
[3] abbreviates: source organism: Dengue virus 2 Jamaica/1409/1983.
Where [4] appears, read: source organism: SARS coronavirus Tor2.
The mark [5] stands for this setting: source organism: Dengue virus 1 Brazil/97-11/1997.
Where [6] appears, read: source organism: Dengue virus 3 Martinique/1243/1999.
Setting [7] is: source organism: Mammarenavirus lassaense.
Where [8] appears, read: source organism: Triticum aestivum.
The mark [9] stands for this setting: source organism: Dengue virus 4 Philippines/H241/1956.
The mark [10] stands for this setting: source organism: Vaccinia virus Copenhagen.
Where [11] appears, read: source organism: Mammarenavirus brazilense.

Take VSRQEKGKSL: the Kd with HLA-B*08:01 (source organism: Dengue virus 2 Peru/IQT2913/1996) came out at 967 nM.

In the case of KPESRPFDLI, the Kd with HLA-B*07:02 (setting [1]) was 1380 nM; with HLA-B*53:01 (setting [1]), 18600 nM; with HLA-B*35:01 (setting [1]), not below 69900 nM; in the experiment with HLA-B*51:01 (setting [1]), not below 69600 nM; with HLA-B*54:01 (setting [1]), 18500 nM.

For the sequence IISTFHLSI, the Kd was 236 nM with HLA-A*02:02 (setting [2]), 13.9 nM with HLA-A*02:03 (setting [2]), 264 nM with HLA-A*02:06 (setting [2]) and 652 nM in the experiment with HLA-A*68:02 (setting [2]).

As for ELEKTRRKL, the dissociation constant Kd is not below 45200 nM in the experiment with HLA-A*02:06 (source organism: Homo sapiens) and 6990 nM with HLA-A*68:02 (source organism: Homo sapiens).

LLKPRCNPA: the Kd came to 20.6 nM in the experiment with HLA-B*15:01 (setting [1]) and 1.16 nM in the experiment with HLA-B*08:01 (setting [1]).

Consider TASLVMLLV, for which the equilibrium dissociation constant (Kd) with HLA-A*68:02 (source organism: Dengue virus 4 Dominica/814669/1981) was found to be 82.5 nM.

Regarding NLYDHALMSI, the dissociation constant (Kd) stood at 1.75 nM in the experiment with HLA-A*02:02 (setting [2]), 0.543 nM with HLA-A*02:03 (setting [2]), 23.1 nM with HLA-A*02:06 (setting [2]) and 75 nM with HLA-A*68:02 (setting [2]).

On to NSTHEMYWV, for which, in the experiment with HLA-A*68:02 (setting [3]), the dissociation constant (Kd) was 92.1 nM.

Turning to APATVCGPKL, the Kd is 30.4 nM with HLA-B*07:02 (setting [4]); not below 50000 nM in the experiment with HLA-B*53:01 (setting [4]); not below 69900 nM in the experiment with HLA-B*35:01 (setting [4]); 7070 nM with HLA-B*51:01 (setting [4]); not below 69900 nM in the experiment with HLA-B*54:01 (setting [4]).

With MPILTLTRAL, the dissociation constant (Kd) in the experiment with HLA-B*07:02 (setting [4]) was 9.46 nM; with HLA-B*53:01 (setting [4]) it was 202 nM; in the experiment with HLA-B*35:01 (setting [4]), 13.7 nM; with HLA-B*51:01 (setting [4]), 8.24 nM; in the experiment with HLA-B*54:01 (setting [4]), 85.4 nM.

For LPVNVAFEL, the Kd with HLA-B*53:01 (setting [4]) was found to be 10.4 nM; with HLA-B*35:01 (setting [4]), 1.89 nM; with HLA-B*51:01 (setting [4]), 1.14 nM; in the experiment with HLA-B*54:01 (setting [4]) it was 420 nM.

On to MQRKHGGML, for which the equilibrium dissociation constant (Kd) in the experiment with HLA-B*15:01 (setting [5]) is 100 nM; with HLA-B*08:01 (setting [5]), 170 nM.

TVVVGDIIGV: the Kd in the experiment with HLA-A*02:06 (setting [6]) was found to be 2.44 nM; with HLA-A*68:02 (setting [6]) it was 1.87 nM.

In the case of SPNLAWPLIV, the dissociation constant (Kd) is 123 nM with HLA-B*07:02 (setting [4]); 1660 nM with HLA-B*53:01 (setting [4]); 887 nM in the experiment with HLA-B*35:01 (setting [4]); 2790 nM in the experiment with HLA-B*51:01 (setting [4]); 556 nM with HLA-B*54:01 (setting [4]).

With IPFNVVTAM, the dissociation constant (Kd) with HLA-B*07:02 (setting [7]) is 18.5 nM; with HLA-B*53:01 (setting [7]), 73.9 nM; with HLA-B*35:01 (setting [7]) it was 5.25 nM; with HLA-B*51:01 (setting [7]), 4230 nM; with HLA-B*54:01 (setting [7]) it was 504 nM.

For the sequence YPSGQGSF, the dissociation constant (Kd) with HLA-B*07:02 (setting [8]) was found to be 11100 nM; in the experiment with HLA-B*53:01 (setting [8]) it was 5150 nM; in the experiment with HLA-B*35:01 (setting [8]) it was 4880 nM; with HLA-B*51:01 (setting [8]), 998 nM; with HLA-B*54:01 (setting [8]), 13300 nM.

On to MEKLRIKGM, for which the dissociation constant (Kd) in the experiment with HLA-B*44:02 came out at 1260 nM; with HLA-B*08:01 (setting [9]), 20.8 nM.

For PPFTQHLLNI, the dissociation constant Kd is not below 69600 nM with HLA-B*07:02 (setting [1]); not below 20900 nM in the experiment with HLA-B*53:01 (setting [1]); not below 69900 nM with HLA-B*35:01 (setting [1]); 12500 nM with HLA-B*51:01 (setting [1]); not below 69900 nM with HLA-B*54:01 (setting [1]).

As for IPDELIDVL, the Kd with HLA-B*07:02 (setting [1]) is 373 nM; with HLA-B*53:01 (setting [1]) it was 458 nM; with HLA-B*35:01 (setting [1]) it was 256 nM; with HLA-B*51:01 (setting [1]) it was 2180 nM; in the experiment with HLA-B*54:01 (setting [1]), 12300 nM.

ITASILLWYA: the results for the dissociation constant (Kd) with HLA-A*02:06 (setting [3]) and in the experiment with HLA-A*68:02 (setting [3]) were 1.98 nM and 12.4 nM, respectively.

For the sequence LPDDFMGCVL, the dissociation constant (Kd) with HLA-B*07:02 (setting [4]) worked out at 105 nM; with HLA-B*53:01 (setting [4]) it was 499 nM; with HLA-B*35:01 (setting [4]), 353 nM; in the experiment with HLA-B*51:01 (setting [4]) it was 98.4 nM; with HLA-B*54:01 (setting [4]), 5490 nM.

Turning to RLFTKVKPLL, the dissociation constant Kd in the experiment with HLA-A*02:03 (source organism: Homo sapiens) was 96 nM; with HLA-A*02:06 (source organism: Homo sapiens) it was 4040 nM; with HLA-A*68:02 (source organism: Homo sapiens), 13600 nM.

In the case of ELNDRFANYI, the figures for the Kd in the experiment with HLA-A*02:02 (source organism: Homo sapiens) and with HLA-A*68:02 (source organism: Homo sapiens) were 37.6 nM and 11.6 nM, respectively.

Regarding SIFIRMLIL, the equilibrium dissociation constant (Kd) with HLA-B*08:01 (setting [10]) was found to be 10.1 nM.

As for APFMSDLQF, the Kd was 148 nM in the experiment with HLA-B*07:02 (setting [11]); 31.9 nM with HLA-B*53:01 (setting [11]); 7.55 nM with HLA-B*35:01 (setting [11]); not below 39300 nM in the experiment with HLA-B*51:01 (setting [11]); not below 36300 nM in the experiment with HLA-B*54:01 (setting [11]).

Take FPLCANGQVF: the Kd in the experiment with HLA-B*07:02 (setting [4]) was 87.1 nM; in the experiment with HLA-B*53:01 (setting [4]) it was 1.94 nM; in the experiment with HLA-B*35:01 (setting [4]) it was 1.84 nM; with HLA-B*51:01 (setting [4]), 10.6 nM; in the experiment with HLA-B*54:01 (setting [4]), 358 nM.

Regarding GIRPRFLSQ, in the experiment with HLA-B*08:01 (setting [10]), the Kd amounted to 221 nM.

As for FLTSVINRV, the Kd with HLA-A*02:01 was 3.5 nM; in the experiment with HLA-A*02:02 (setting [10]), 1.66 nM; in the experiment with HLA-B*07:02 (setting [10]), not below 77500 nM; with HLA-B*53:01 (setting [10]), not below 61000 nM; with HLA-B*35:01 (setting [10]), 19000 nM; with HLA-A*31:01, not below 77900 nM. Further, the Kd with HLA-A*11:01 was not below 77900 nM; in the experiment with HLA-A*02:03 (setting [10]), 5.63 nM; with HLA-A*03:01, not below 78000 nM; with HLA-A*33:01 it was not below 77700 nM; with HLA-B*51:01 (setting [10]), not below 37200 nM; with HLA-B*54:01 (setting [10]) it was 904 nM. Further, in the experiment with HLA-A*68:01, the dissociation constant Kd came to 9600 nM.

SFKFRPGSL: the dissociation constant (Kd) with HLA-B*08:01 (setting [1]) came to 2.98 nM.

In the case of MSIISFFPF, the values for the equilibrium dissociation constant (Kd) with HLA-B*15:01 (setting [1]) and in the experiment with HLA-B*08:01 (setting [1]) were 0.168 nM and 857 nM, respectively.

For MPEKRNVVVV, the dissociation constant Kd in the experiment with HLA-B*07:02 (setting [1]) was 194 nM; with HLA-B*53:01 (setting [1]), 13200 nM; with HLA-B*35:01 (setting [1]) it was 4350 nM; in the experiment with HLA-B*51:01 (setting [1]), 2090 nM; in the experiment with HLA-B*54:01 (setting [1]), 40.6 nM.

With VLIEVNPPF, the dissociation constant Kd with HLA-B*46:01 is not below 20000 nM.

For YAKSKRMAE, the equilibrium dissociation constant (Kd) in the experiment with HLA-B*08:01 (setting [1]) was determined as 31.1 nM.

SRISRFANL: in the experiment with HLA-B*08:01 (setting [1]), the dissociation constant Kd was 19.6 nM.

On to TSAWVMYGT, for which the dissociation constant (Kd) in the experiment with HLA-A*68:02 (setting [9]) is 1.7 nM.

For IMAVGLVSLL, in the experiment with HLA-B*08:01 (setting [9]), the Kd worked out at 863 nM.

For FPANINDKQI, the dissociation constant (Kd) was determined as 468 nM with HLA-B*07:02 (setting [1]); 8.77 nM with HLA-B*53:01 (setting [1]); 384 nM with HLA-B*35:01 (setting [1]); 145 nM with HLA-B*51:01 (setting [1]); 13.8 nM in the experiment with HLA-B*54:01 (setting [1]).

In the case of NRMEIFLVL, the dissociation constant Kd with HLA-B*08:01 (setting [10]) came to 4.85 nM.

Consider MPVETLFGSY, for which the Kd with HLA-B*07:02 (setting [1]) was not below 44000 nM; with HLA-B*53:01 (setting [1]), 2.28 nM; with HLA-B*35:01 (setting [1]), 3.28 nM; in the experiment with HLA-B*51:01 (setting [1]), not below 69600 nM; with HLA-B*54:01 (setting [1]), 106 nM.

With EIASLPTYL, the Kd with HLA-A*68:02 (setting [9]) was found to be 7.91 nM.
